For three substances, Kd and IC50 results are on record in patent US20140057857A1.

One experiment has as its target GST-Bcl-xL. Put plainly: fluorescence polarization assay, labeled peptide on GST-Bcl-xL. A general note: In fluorescence polarisation assays a small probe gives low polarisation when free and higher when bound to something large.
The target of experiment [1] is GST-Mcl-1. As to the kind of experiment: fluorescence polarization assay, labeled peptide on GST-Mcl-1.
For experiment [2], the target named is GST-Mcl-1. As to the kind of experiment: competitive FP assay on Mcl-1.

For orientation: Kd means the free concentration of one partner at which half of the binding sites on the other are occupied at equilibrium, for simple one-to-one binding. In general, IC50 refers to the midpoint of a concentration-inhibition curve. Low values mean inhibition by little substance, high ones a need for much substance.

Take Bak (fluorescein-labeled Bak peptide): the figures for the Kd in the experiment with GST-Bcl-xL and with GST-Mcl-1 [1] were 14 nM and 127 nM, respectively.

Bim (fluorescein-labeled Bim peptide): the values for the Kd in the experiment with GST-Bcl-xL and with GST-Mcl-1 [1] were 1.4 nM and 2.5 nM, respectively. Consider Ubiquitin-Noxa fusion protein, for which the IC50 with GST-Mcl-1 [2] came to 160 nM.
